As usually defined, the IC50 is the concentration that inhibits the measured activity by half.

We go through 5 molecules from patent US20030232387A1 (Takeda / Millennium, published 2003).

Assay [1] addresses T1, α4β7 integrin expressed on transfected K562 cells (human, UniProt P13612 34-1032; P26010 20-798).
T1 construct: How the α4β7 transfectants were made is not described; also called α4β7 transfectants
Briefly: flow cytometry on K562 α4β7 transfectants.

The target of assay [2] is T2, human αEβ7 integrin expressed on cells (human, UniProt P38570 19-1179; P26010 20-798).
T2 construct: also called K562 transfectants that express αEβ7; L1.2 αEβ7 transfectants
Briefly: cell adhesion assay, inhibition of K562 αEβ7 cells binding to immobilised E-cadherin-IgG. As to the method:
ELISA plates were coated with 100 ng/well E-cadherin-IgG fusion protein in TBS (20 mM Tris, 140 mM NaCl, pH 9)/1 mM CaCl₂ overnight at 4° C. Plates were washed with wash buffer (HBSS/1 mM CaCl₂), and blocked with HBSS/1 mM CaCl₂/2% BSA for one hour at 37° C. After blocking, plates were washed twice with wash buffer. K562 transfectants at log growth stage were collected, washed once in HBSS/0.2% BSA/1 mM CaCl₂/1 mM MgCl₂, and resuspended to 4×10⁶ cells/mL in the same buffer. Cells were labeled with the fluorecent dye BCECF-AM (Molecular Probes, 4 μg/ml final concentration) for 15 minutes at […]. Labeled cells were washed twice, and resuspended in assay buffer (HBSS/0.2% BSA/1 mM CaCl₂/1 mM MgCl₂/1 mM MnCl₂) to 8×10⁵ cells/mL. 50 μl of the cell suspension was added to the E-cadherin-IgG coated well (4×10⁴ cells/well), and mixed with 50 μl assay buffer containing antibodies with desired concentration, or isotype-matched control antibody. The plate was then incubated at room temperature for 1 hour. The fluorescence content in each well was read on a Fluorescent Concentration Analyser (IDEXX, Westbrook, Me.) before and after three washes with HBSS/0.5 mM CaCl₂/0.5 mM MgCl₂/0.5 mM MnCl₂ using a Microplate Autowasher (Bio-Tek instruments, Winooski, Vt.). The Microplate Autowasher was programmed with parameters: 250 μl wash volume, 1× wash cycle, 0 soak time, and aspiration tube depth of 70. The bound cells (after washes) were expressed as a percentage of total input cells (before washes) in each well. Each sample was set up in triplicate wells.

The target of assay [3] is mutant αEβ7 integrin, αE F298A, on transfected K562 cells (human, UniProt P38570 19-1179; P26010 20-798, F298A). Briefly: flow cytometry on K562 cells expressing αEβ7 with αE F298A. The procedure:
The fine specificity of mAb 5E4 was determined using a panel of transfected K562 cells that expressed various mutant αEβ7 integrins and detecting antibody binding to the transfectants by flow cytometry. The mutants proteins and methods used have been previously described in Higgins, J. M. G. et al., J. Biol. Chem. 275:25652-25664 (2000). The mutant αEβ7 integrins used contained the following mutations in the αE chain: R159S/R160S; ΔE163-E180; ΔE176; D190A; G193A; D199A; R202A/D205A; G230A/V231A; D240A; F298A; P311H/E345A/T346A; E325A; and Y354W. (See, Higgins, J. M. G. et al., J. Biol. Chem. 275:25652-25664 (2000).)
The fine specificity of mAb 5E4 was examined using transfected K562 cells that expressed αEβ7 integrin or mutated version of αEβ7 integrins, and antibody binding was detected by flow cytometry. Antibody binding was inhibited by deletion of amino acid residues 163-180 (ΔE163-E180; amino acid residues 163-180 of SEQ ID NO: 2), which are in the X domain of integrin αE chain, and was essentially abrogated by mutation of amino acid residue 298 (amino acid residue 298 of SEQ ID NO:2), which is in the I-domain, from Phenylalanine to Alanine (F298A).
(In general: In flow cytometry, cells or beads pass a laser one at a time.)

“And” between values parts separate entries of the source, which are not always exact repeats. Equal entries are not always repeated.

T2 sequence (P38570 other isoform, or with tags, fused parts or gaps limits assumed, chain 1 of 2): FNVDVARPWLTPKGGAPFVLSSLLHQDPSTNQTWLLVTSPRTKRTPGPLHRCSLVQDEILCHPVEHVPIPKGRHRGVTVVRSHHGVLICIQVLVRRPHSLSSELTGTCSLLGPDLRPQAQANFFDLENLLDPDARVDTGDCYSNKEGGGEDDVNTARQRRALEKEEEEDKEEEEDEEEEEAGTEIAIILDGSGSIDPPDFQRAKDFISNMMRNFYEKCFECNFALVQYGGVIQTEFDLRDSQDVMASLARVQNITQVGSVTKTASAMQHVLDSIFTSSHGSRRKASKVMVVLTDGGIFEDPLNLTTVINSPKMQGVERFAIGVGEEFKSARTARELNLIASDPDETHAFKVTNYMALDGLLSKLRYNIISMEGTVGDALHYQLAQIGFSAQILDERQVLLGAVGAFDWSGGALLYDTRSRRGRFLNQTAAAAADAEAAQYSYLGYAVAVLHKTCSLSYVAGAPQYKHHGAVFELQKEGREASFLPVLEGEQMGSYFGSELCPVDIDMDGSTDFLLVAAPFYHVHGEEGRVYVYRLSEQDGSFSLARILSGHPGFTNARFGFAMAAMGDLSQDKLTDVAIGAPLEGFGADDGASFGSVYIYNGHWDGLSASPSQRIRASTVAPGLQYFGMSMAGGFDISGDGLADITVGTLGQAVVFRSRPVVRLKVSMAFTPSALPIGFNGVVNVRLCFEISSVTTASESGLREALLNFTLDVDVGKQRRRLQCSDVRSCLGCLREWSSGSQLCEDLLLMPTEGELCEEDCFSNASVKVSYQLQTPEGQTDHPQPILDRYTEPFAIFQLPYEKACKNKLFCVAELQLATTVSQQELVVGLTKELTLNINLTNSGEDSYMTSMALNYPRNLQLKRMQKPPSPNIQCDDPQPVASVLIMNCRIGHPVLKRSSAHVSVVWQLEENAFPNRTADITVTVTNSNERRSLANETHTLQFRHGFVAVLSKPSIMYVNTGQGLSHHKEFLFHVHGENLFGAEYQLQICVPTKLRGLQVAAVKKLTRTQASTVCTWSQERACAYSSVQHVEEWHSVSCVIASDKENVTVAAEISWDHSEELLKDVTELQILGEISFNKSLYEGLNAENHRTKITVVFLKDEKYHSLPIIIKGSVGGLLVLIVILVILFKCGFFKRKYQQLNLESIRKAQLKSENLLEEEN
T2 sequence (P26010 20-798 limits assumed, chain 2 of 2): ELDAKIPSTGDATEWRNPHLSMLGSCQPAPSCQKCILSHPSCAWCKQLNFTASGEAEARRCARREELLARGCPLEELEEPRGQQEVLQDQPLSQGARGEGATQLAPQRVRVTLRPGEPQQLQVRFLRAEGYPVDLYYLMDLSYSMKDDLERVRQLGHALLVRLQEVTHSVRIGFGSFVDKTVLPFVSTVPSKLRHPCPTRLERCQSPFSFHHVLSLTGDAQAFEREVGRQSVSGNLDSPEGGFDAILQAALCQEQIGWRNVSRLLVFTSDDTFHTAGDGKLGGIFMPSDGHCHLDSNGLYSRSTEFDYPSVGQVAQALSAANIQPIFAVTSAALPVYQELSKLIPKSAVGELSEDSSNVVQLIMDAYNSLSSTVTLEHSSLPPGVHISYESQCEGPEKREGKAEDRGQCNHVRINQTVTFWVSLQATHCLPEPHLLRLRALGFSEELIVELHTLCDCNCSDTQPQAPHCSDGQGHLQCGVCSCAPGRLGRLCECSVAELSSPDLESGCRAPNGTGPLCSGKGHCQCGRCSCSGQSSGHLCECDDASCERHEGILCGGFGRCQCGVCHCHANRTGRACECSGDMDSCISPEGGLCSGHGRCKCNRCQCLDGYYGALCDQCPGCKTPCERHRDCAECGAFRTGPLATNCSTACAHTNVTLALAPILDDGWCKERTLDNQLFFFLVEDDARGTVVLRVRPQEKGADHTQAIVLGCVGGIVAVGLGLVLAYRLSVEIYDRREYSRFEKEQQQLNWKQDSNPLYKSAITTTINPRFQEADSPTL
T1 sequence (P13612 34-1032 R878Q limits assumed, chain 1 of 2): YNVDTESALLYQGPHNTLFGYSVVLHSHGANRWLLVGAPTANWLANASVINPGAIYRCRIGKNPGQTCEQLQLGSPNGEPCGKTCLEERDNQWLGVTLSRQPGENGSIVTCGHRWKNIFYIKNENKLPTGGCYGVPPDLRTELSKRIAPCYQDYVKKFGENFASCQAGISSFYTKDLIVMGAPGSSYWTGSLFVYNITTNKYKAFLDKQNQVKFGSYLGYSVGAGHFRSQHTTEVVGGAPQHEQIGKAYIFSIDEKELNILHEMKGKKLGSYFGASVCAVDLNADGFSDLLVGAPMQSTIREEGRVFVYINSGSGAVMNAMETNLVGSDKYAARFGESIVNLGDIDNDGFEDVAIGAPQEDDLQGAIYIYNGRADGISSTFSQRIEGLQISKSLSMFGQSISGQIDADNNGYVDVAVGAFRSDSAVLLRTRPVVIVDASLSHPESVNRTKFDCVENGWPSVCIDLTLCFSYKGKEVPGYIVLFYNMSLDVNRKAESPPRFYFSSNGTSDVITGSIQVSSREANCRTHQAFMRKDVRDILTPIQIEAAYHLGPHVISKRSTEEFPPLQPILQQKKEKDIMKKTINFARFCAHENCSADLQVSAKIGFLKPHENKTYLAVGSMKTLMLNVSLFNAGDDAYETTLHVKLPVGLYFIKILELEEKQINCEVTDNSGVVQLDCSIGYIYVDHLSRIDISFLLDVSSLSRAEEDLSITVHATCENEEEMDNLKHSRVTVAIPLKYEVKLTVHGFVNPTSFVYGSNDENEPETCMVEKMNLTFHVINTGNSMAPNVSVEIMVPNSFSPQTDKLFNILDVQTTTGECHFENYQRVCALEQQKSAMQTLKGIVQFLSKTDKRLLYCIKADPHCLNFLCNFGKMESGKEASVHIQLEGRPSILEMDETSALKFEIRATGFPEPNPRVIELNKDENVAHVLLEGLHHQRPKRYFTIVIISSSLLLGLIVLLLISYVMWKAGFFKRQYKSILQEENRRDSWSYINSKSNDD
T1 sequence (P26010 20-798 limits assumed, chain 2 of 2): as the sequence (P26010 20-798 limits assumed, chain 2 of 2) above
Chain of mutant αEβ7 integrin, αE F298A, on transfected K562 cells (P38570 other isoform, or with tags, fused parts or gaps F298A | F298A F298A, chain 1 of 2): as the sequence (P38570 other isoform, or with tags, fused parts or gaps limits assumed, chain 1 of 2) above, with F298A counted along it
Chain of mutant αEβ7 integrin, αE F298A, on transfected K562 cells (P26010 20-798, chain 2 of 2): as the sequence (P26010 20-798 limits assumed, chain 2 of 2) above

B1: mAb 3G6 (IgG1) (antibody, V domains shown)
VH: EVQLVQSGAEVKKPGESLKISCKGSGYSFTSYWIGWVRQMPGKGLEWMGIIYPGDSGPRYSPSFQGQVTISADKSISTAYLQWSSLKASDTAMYYCARLSYTSTWYPYYFDYWGQGTLVTVSS
VL: not shown
notes: Human antibody; also called converted 3G6 (IgG1); antibody produced by CHO 3G6 C1.2D6
As for B1, the binding result in assay [1] is reported as “no binding”. Also, the IC50 in assay [2] was ~2.04 µg/mL and ~13.4 nM.

B2: mAb 5E4 (IgG1) (antibody, V domains shown)
VH: EVQLVESGGGLVQPGGSLRLSCAASGFTFSNFWMSWVRQAPGKGLEWMANIKQDGSEKYYVDSVKGRFTISRDNAKSSLFLQMNSLRVDDTAVYFCAGDYYDSGSFYWGQGTLVTVSS
VL: EIVLTQSPATLSLSPGERATLSCRASQSVRSNLAWYQQKPGQAPRLLIYDASNRAIGIPARFSGSGSGTDFTLTISSLEPEDFVVYYCQQRSNWPPWTFGQGTKVEIK
notes: Human antibody; also called converted 5E4 (IgG1); antibody produced by CHO 5G4 A1.2C12
As for B2, the binding result in assay [1] was “no binding”. The IC50 in assay [2] was ~1.29 µg/mL and ~8.5 nM.

B3: mAb 5E4 (antibody, V domains shown)
VH: EVQLVESGGGLVQPGGSLRLSCAASGFTFSNFWMSWVRQAPGKGLEWMANIKQDGSEKYYVDSVKGRFTISRDNAKSSLFLQMNSLRVDDTAVYFCAGDYYDSGSFYWGQGTLVTVSS
VL: EIVLTQSPATLSLSPGERATLSCRASQSVRSNLAWYQQKPGQAPRLLIYDASNRAIGIPARFSGSGSGTDFTLTISSLEPEDFVVYYCQQRSNWPPWTFGQGTKVEIK
notes: The variable domains are the same as in m3 and m4
As for B3, the binding result in assay [3] was “no binding”.

B4: mAb 8D5 (IgG1) (antibody, V domains shown)
VH: QVQLQESGPGLVKPSETLSLTCTVSGGSVSSYYWSWIRQPPGKGLEWIGHIYYSGNTNYNPSLKSRVTISVDTSKNQFSLKLSSVTAADTAVYFCARDRWNYYDSSPGYYYYYGMDVWGQGTTVTVSS
VL: DIQMTQSPSSLSASVGDRVTITCRASQGIRNDLGWYQQKPGKAPKRLIFAASHLQSGVPSRFSGSGSGTEFTLTISSLQPEDFATYYCQQHNSSPFTFGPGTRVDIK
notes: The variable domains are the same either way
With B4, the 50% inhibitory concentration (IC50) in assay [2] is ~0.715 µg/mL and ~4.7 nM.

B5: mAb 8D5 (antibody, V domains shown)
VH: QVQLQESGPGLVKPSETLSLTCTVSGGSVSSYYWSWIRQPPGKGLEWIGHIYYSGNTNYNPSLKSRVTISVDTSKNQFSLKLSSVTAADTAVYFCARDRWNYYDSSPGYYYYYGMDVWGQGTTVTVSS
VL: DIQMTQSPSSLSASVGDRVTITCRASQGIRNDLGWYQQKPGKAPKRLIFAASHLQSGVPSRFSGSGSGTEFTLTISSLQPEDFATYYCQQHNSSPFTFGPGTRVDIK
notes: also called 8D5 IgG2; human mAb 8D5 (IgG2)
As to B5, the binding result in assay [1] was “no binding”.
